Data set [1] concerns CC[C@H](C)[C@H](NC(=O)[C@H](C)NC(=O)CNC(=O)[C@H](CCCCN)NC(=O)[C@H](CC(N)=O)NC(=O)[C@H](CO)NC(=O)CNC(=O)[C@@H](NC(=O)[C@H](CC(=O)O)NC(=O)[C@H](CCC(=O)O)NC(=O)[C@H](C)NC(=O)[C@H](Cc1ccccc1)NC(=O)[C@H](Cc1ccccc1)NC(=O)[C@@H](NC(=O)[C@H](CC(C)C)NC(=O)[C@H](CCCCN)NC(=O)[C@H](CCC(N)=O)NC(=O)[C@H](Cc1c[nH]cn1)NC(=O)[C@H](Cc1c[nH]cn1)NC(=O)[C@@H](NC(=O)[C@H](CCC(=O)O)NC(=O)[C@H](Cc1ccc(O)cc1)NC(=O)CNC(=O)[C@H](CO)NC(=O)[C@H](CC(=O)O)NC(=O)[C@H](Cc1c[nH]cn1)NC(=O)[C@H](CCCNC(=N)N)NC(=O)[C@H](Cc1ccccc1)NC(=O)[C@H](CCC(=O)O)NC(=O)[C@H](C)NC(=O)[C@@H](N)CC(=O)O)C(C)C)C(C)C)C(C)C)C(=O)N[C@H](C(=O)NCC(=O)N[C@@H](CC(C)C)C(=O)N[C@@H](CCSC)C(=O)N[C@H](C(=O)NCC(=O)NCC(=O)N[C@H](C(=O)N[C@H](C(=O)N[C@H](C(=O)N[C@@H](C)C(=O)N[C@H](C(=O)N[C@H](C(=O)N[C@H](C(=O)N[C@H](C(=O)O)C(C)C)[C@@H](C)CC)C(C)C)[C@@H](C)O)[C@@H](C)CC)C(C)C)C(C)C)C(C)C)[C@@H](C)CC. As to the kind of experiment: purified protein, by the assay type.

Data set [2] concerns CC[C@H](C)[C@H](NC(=O)[C@@H](NC(=O)[C@@H](NC(=O)[C@H](C)NC(=O)[C@@H](NC(=O)[C@@H](NC(=O)[C@@H](NC(=O)CNC(=O)CNC(=O)[C@@H](NC(=O)[C@H](CCSC)NC(=O)[C@H](CC(C)C)NC(=O)CNC(=O)[C@@H](NC(=O)[C@@H](NC(=O)[C@H](C)NC(=O)CNC(=O)[C@H](CCCCN)NC(=O)[C@H](CC(N)=O)NC(=O)[C@H](CO)NC(=O)CNC(=O)[C@@H](NC(=O)[C@H](CC(=O)O)NC(=O)[C@H](CCC(=O)O)NC(=O)[C@H](C)NC(=O)[C@H](Cc1ccccc1)NC(=O)[C@H](Cc1ccccc1)NC(=O)[C@@H](NC(=O)[C@H](CC(C)C)NC(=O)[C@H](CCCCN)NC(=O)[C@H](CCC(N)=O)NC(=O)[C@H](Cc1c[nH]cn1)NC(=O)[C@H](Cc1c[nH]cn1)NC(=O)[C@@H](NC(=O)[C@H](CCC(=O)O)NC(=O)[C@H](Cc1ccc(O)cc1)NC(=O)CNC(=O)[C@H](CO)NC(=O)[C@H](CC(=O)O)NC(=O)[C@H](Cc1c[nH]cn1)NC(=O)[C@H](CCCNC(=N)N)NC(=O)[C@H](Cc1ccccc1)NC(=O)[C@H](CCC(=O)O)NC(=O)[C@H](C)NC(=O)[C@@H](N)CC(=O)O)C(C)C)C(C)C)C(C)C)[C@@H](C)CC)[C@@H](C)CC)C(C)C)C(C)C)C(C)C)[C@@H](C)CC)[C@@H](C)O)C(C)C)C(=O)O. As to the kind of experiment: purified protein, by the assay type.

The subject of a further data set is γ-secretase. To be noted: Chávez-Gutiérrez et al., 2012; Funamoto et al., 2013; read-out: Km (substrate affinity constant); cited from earlier work.

In general, Km refers to the concentration of substrate that gives half-maximal velocity. Usually Vmax stands for the top rate of the reaction or transport when substrate is in excess. As for “wild type human γ-secretase (PSEN1/APH1a) (Homo sapiens)”, the Km in data set [1] (other: 37° C., 37.0 °C) came to 3.3 µM; in data set [1] (other: 51° C., […]) it was 2.3 µM; in data set [1] (other: summary of Table 2) it was 3 µM; in data set [2] (other: 37° C., 37.0 °C), 2.9 µM; in data set [2] (other: 45° C., […]), 1.7 µM; in data set [2] (other: 51° C., […]), 1.4 µM. Further, in data set [2] (other: summary of Table 2), the Km was found to be 3 µM. The Vmax in data set [1] (other: 37° C., 37.0 °C) was 606.3 nM/h; in data set [1] (other: 51° C., […]), 348.8 nM/h; in data set [2] (other: 37° C., 37.0 °C), 545.2 nM/h; in data set [2] (other: 45° C., […]), 274.3 nM/h; in data set [2] (other: 51° C., […]), 97.45 nM/h.

For the substance “APP-C99: human Amyloid beta precursor protein C99 fragment (99 aa), natural γ-secretase substrate”, the Km with γ-secretase was 0.4 to 0.8 µM.

(Values after US11346848B2, “Γ-secretase stabilizing compound screening assay” (VIB VZW, priority 2017, dated 2022).)
